One substance from article PMC12817929 can be followed below.

The target in the assay is HEV-ORF2 mutant lacking all three KFERQ-like motifs (ORF2ΔCMA) (hepatitis E virus genotype 3 (HEV-3), KernowC1-p6 strain). The assay is described as follows: co-IP; HEK-293T transfected with plasmids for HSC70 and GRP75 together with WT ORF2 or ORF2ΔCMA for 48 h, NP-40 lysis, IP with Mab-2G8, blots for HSC70 and GRP75.

Substance “GRP75 expressed from plasmid in HEK-293T cells together with HSC70 and ORF2 (tag not stated) (from UniProt P38646 47-679) (natural protein)” came in with a decrease of co-precipitated GRP75 against wild-type ORF2 of 50%.
